The text below walks through data of paper PMC5146997.

The target of assay [1] is EphA2-Fc (entire ectodomain of EphA2 fused to the Fc fragment of IgG) (UniProt P29317). As to the kind of experiment: ELISA.
The target of assay [2] is EphA2 at the surface of PC3 cells (endogenous) (human (endogenous in PC3)) (UniProt P29317). As to the kind of experiment: in-cell binding assay.

For orientation: Kd means the constant that tells how readily two partners part at equilibrium. A high value points to lower affinity. The term IC50 denotes the concentration at which inhibition is half-maximal.

Chain of EphA2 at the surface of PC3 cells (endogenous) (human (endogenous in PC3)) (P29317 24-976): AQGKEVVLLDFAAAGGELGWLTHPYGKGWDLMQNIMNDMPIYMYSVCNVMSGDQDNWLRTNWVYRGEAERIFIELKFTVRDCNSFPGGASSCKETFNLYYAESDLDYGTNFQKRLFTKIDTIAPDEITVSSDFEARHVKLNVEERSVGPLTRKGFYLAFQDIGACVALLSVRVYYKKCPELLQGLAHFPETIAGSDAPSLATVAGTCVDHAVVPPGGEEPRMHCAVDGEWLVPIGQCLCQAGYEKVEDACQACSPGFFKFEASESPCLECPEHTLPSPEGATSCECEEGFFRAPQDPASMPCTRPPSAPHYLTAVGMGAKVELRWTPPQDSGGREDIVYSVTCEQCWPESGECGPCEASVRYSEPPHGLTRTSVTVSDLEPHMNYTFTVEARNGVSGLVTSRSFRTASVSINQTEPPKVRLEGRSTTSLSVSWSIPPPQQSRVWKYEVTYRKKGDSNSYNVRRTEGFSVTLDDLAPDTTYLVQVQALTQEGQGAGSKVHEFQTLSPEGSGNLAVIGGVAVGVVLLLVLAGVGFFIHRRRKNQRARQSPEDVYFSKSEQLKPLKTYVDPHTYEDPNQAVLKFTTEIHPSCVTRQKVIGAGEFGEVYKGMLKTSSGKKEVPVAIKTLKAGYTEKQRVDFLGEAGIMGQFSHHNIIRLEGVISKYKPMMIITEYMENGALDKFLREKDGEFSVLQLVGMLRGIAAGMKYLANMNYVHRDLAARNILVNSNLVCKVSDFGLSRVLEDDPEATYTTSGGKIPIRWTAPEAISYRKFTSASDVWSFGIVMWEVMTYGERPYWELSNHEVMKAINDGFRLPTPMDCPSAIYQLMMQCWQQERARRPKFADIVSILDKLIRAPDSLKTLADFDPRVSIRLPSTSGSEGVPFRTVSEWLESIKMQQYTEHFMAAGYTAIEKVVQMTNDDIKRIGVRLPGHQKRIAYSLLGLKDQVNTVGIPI
Chain of EphA2-Fc (entire ectodomain of EphA2 fused to the Fc fragment of IgG) (P29317 24-537): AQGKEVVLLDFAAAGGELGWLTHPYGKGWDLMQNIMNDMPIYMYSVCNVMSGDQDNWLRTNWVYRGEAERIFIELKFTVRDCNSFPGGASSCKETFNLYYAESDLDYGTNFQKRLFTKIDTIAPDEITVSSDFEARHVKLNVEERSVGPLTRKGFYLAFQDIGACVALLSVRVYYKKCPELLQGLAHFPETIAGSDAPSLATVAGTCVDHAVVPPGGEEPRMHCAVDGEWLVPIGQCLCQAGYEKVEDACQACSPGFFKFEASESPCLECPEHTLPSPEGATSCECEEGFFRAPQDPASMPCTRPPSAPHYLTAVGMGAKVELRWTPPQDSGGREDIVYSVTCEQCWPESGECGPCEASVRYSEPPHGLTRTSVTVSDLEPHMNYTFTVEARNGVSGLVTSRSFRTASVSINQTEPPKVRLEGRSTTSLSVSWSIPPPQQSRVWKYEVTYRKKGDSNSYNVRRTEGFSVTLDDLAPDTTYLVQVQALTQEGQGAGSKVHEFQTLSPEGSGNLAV

“EphrinA1-Fc (from UniProt P20827 19-182) (Fc fusion)” came in with a Kd in assay [1] of 17 nM. Further, the IC50 in assay [2] worked out at 400 nM.
